# Assay results: patent US20220332848A1
# pEC50: −log10 of the molar value.
# Legend:
# human CTLA-4 (human) = human CTLA-4 (human) (UniProt P16410); test: FACS binding CHO-K1 cells expressing human CTLA-4
# CD47 = CD47 (UniProt Q08722); test: FACS binding CHO-K1 cells expressing CD47
# CD47, sequence (Q08722 19-323): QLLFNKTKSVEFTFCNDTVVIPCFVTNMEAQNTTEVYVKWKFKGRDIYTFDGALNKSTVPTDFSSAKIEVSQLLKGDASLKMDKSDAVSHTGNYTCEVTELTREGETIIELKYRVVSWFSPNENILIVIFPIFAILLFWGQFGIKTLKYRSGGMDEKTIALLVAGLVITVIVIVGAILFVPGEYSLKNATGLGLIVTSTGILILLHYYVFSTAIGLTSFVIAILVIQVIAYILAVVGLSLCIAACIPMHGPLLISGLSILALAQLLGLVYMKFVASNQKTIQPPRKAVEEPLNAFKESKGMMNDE
# human CTLA-4 (human), sequence (P16410 36-223): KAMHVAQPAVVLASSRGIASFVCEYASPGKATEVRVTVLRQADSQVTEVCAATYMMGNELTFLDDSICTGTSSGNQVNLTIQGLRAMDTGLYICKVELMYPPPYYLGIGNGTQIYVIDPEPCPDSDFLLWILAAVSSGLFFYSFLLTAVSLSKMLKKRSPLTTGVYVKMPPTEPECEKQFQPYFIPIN
substance,measurement,setting,value
human IgG,pEC50,human CTLA-4 (human),7.38
same,pEC50,CD47,8.41
